The record followed here is IntAct's records for PubMed 32453716.

First the molecules themselves.
B1: TOG array regulator of axonemal microtubules protein 1 (Homo sapiens), Q9Y4F4 (parent)
chain: MAAAPSALLLLPPFPVLSTYRLQSRSRPSAPETDDSRVGGIMRGEKNYYFRGAAGDHGSCPTTTSPLASALLMPSEAVSSSWSESGGGLSGGDEEDTRLLQLLRTARDPSEAFQALQAALPRRGGRLGFPRRKEALYRALGRVLVEGGSDEKRLCLQLLSDVLRGQGEAGQLEEAFSLALLPQLVVSLREENPALRKDALQILHICLKRSPGEVLRTLIQQGLESTDARLRASTALLLPILLTTEDLLLGLDLTEVIISLARKLGDQETEEESETAFSALQQIGERLGQDRFQSYISRLPSALRRHYNRRLESQFGSQVPYYLELEASGFPEDPLPCAVTLSNSNLKFGIIPQELHSRLLDQEDYKNRTQAVEELKQVLGKFNPSSTPHSSLVGFISLLYNLLDDSNFKVVHGTLEVLHLLVIRLGEQVQQFLGPVIAASVKVLADNKLVIKQEYMKIFLKLMKEVGPQQVLCLLLEHLKHKHSRVREEVVNICICSLLTYPSEDFDLPKLSFDLAPALVDSKRRVRQAALEAFAVLASSMGSGKTSILFKAVDTVELQDNGDGVMNAVQARLARKTLPRLTEQGFVEYAVLMPSSAGGRSNHLAHGADTDWLLAGNRTQSAHCHCGDHVRDSMHIYGSYSPTICTRRVLSAGKGKNKLPWENEQPGIMGENQTSTSKDIEQFSTYDFIPSAKLKLSQGMPVNDDLCFSRKRVSRNLFQNSRDFNPDCLPLCAAGTTGTHQTNLSGKCAQLGFSQICGKTGSVGSDLQFLGTTSSHQEKVYASLNFGSKTQQTFGSQTECTSSNGQNPSPGAYILPSYPVSSPRTSPKHTSPLIISPKKSQDNSVNFSNSWPLKSFEGLSKPSPQKKLVSQKSSDPTGRNHGENSQEKPPVQLTPALVRSPSSRRGLNGTKPVPPIPRGISLLPDKADLSTVGHKKKEPDDIWKCEKDSLPIDLSELNFKDKDLDQEEMHSSLRSLRNSAAKKRAKLSGSTSDLESPDSAMKLDLTMDSPSLSSSPNINSYSESGVYSQESLTSSLSTTPQGKRIMSDIFPTFGSKPCPTRLSSAKKKISHIAEQSPSAGSSSNPQQISSFDFTTTKALSEDSVVVVGKGVFGSLSSAPATCSQSVISSVENGDTFSIKQSIEPPSGIYGRSVQQNISSYLDVENEKDAKVSISKSTYNKMRQKRKEEKELFHNKDCEKKEKNSWERMRHTGTEKMASESETPTGAISQYKERMPSVTHSPEIMDLSELRPFSKPEIALTEALRLLADEDWEKKIEGLNFIRCLAAFHSEILNTKLHETNFAVVQEVKNLRSGVSRAAVVCLSDLFTYLKKSMDQELDTTVKVLLHKAGESNTFIREDVDKALRAMVNNVTPARAVVSLINGGQRYYGRKMLFFMMCHPNFEKMLEKYVPSKDLPYIKDSVRNLQQKGLGEIPLDTPSAKGRRSHTGSVGNTRSSSVSRDAFNSAERAVTEVREVTRKSVPRNSLESAEYLKLITGLLNAKDFRDRINGIKQLLSDTENNQDLVVGNIVKIFDAFKSRLHDSNSKVNLVALETMHKMIPLLRDHLSPIINMLIPAIVDNNLNSKNPGIYAAATNVVQALSQHVDNYLLLQPFCTKAQFLNGKAKQDMTEKLADIVTELYQRKPHATEQKVLVVLWHLLGNMTNSGSLPGAGGNIRTATAKLSKALFAQMGQNLLNQAASQPPHIKKSLEELLDMTILNEL
partner: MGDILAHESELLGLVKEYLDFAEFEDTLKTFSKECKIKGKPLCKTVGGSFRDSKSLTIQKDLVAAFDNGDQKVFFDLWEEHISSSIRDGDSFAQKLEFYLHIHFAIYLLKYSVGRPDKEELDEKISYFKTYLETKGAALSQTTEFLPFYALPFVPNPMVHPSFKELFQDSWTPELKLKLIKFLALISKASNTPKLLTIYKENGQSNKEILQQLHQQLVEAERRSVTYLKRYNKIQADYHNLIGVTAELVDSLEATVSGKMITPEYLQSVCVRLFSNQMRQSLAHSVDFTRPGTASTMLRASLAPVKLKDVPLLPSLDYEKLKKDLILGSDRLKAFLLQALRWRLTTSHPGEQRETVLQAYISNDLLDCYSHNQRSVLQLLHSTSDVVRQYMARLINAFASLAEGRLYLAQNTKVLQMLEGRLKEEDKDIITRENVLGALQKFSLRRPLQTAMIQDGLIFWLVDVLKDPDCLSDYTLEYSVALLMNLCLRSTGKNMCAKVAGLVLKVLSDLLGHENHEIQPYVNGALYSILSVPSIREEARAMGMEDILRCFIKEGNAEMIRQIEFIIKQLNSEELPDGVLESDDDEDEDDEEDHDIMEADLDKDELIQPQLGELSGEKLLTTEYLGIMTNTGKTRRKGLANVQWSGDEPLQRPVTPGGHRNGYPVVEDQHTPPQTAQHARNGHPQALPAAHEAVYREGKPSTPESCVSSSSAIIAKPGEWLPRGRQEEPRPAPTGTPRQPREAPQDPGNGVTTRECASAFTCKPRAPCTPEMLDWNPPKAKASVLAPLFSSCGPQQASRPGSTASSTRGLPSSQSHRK

The variants in this assay derive from B1. The note with it: with armc9_human ARMC9, Q7Z3E5.
For the variant L375P, the “effect of a mutation on the interaction” value is recorded as “disrupting interaction strength”.

In the case of R1311C, the “effect of a mutation on the interaction” value is listed as “with no effect”.

For R368W, the “effect of a mutation on the interaction” value was “disrupting interaction strength”.
